From patent publication EP4792830A2 (Pfizer Inc., dated 2026)
Like-named read-outs stand apart in the source and are kept apart here.

B1: 7A4.D9 (antibody, V domains shown)
VH: EVQLQQSGPELVKPGASVKMSCKASGYTFTSYVMHWVKQKPGQGLEWIGYLNPYNDGTKYNEKFKGKASLISDKSSSTVYMELSSLTSEDSAVYYCATTLLYAMDYWGQGSSVTVSS
VL: DIVLTQSPASLAVSLGQRATISCRASKSVSTSGYTYMHWYQQKPGQPPKLLIYLASNLESGVPARFSGSGSGTDFTLNIHPVEEEDAAAYYCQHIRELPFTFGSGTKLEIKA
notes: Mouse hybridoma antibody
B2: 2A8-200 (antibody, human IgG1, lambda, V domains shown)
VH: QVQLVESGGGLVQPGGSLRLSCAASGFTFRSYGMDWVRQAPGKGLEWVSSIRGSRSSTYYADSVKGRFTISRDNSKNTLYLQMNSLRAEDTAVYYCARLYRYWFDYWGQGTLVTVSS
VL: DIELTQPPSVSVAPGQTARISCSGDNLRNYYAHWYQQKPGQAPVVVIFYDVNRPSGIPERFSGSNSGNTATLTISGTQAEDEADYYCQSWWDGVPVFGGGTKLTVLG
notes: also called Anti-TFPI-2A8-200
B3: 6B7.c5 (antibody, human IgG1, kappa, V domains shown)
VH: EVLLQQSGPELVKPGSSVKIPCKASGYTFTDYTMDWVKQSHGKSLEWIGDINPSNGGSIYNRKFKGKATLTVDKSSSTAYMELRSLTSEDTAVYYCARMHYNYDGFPYWGQGTLVTVSA
VL: DIVMTQSHKFMSTSVGDRVSITCKASQDVITAVAWYQQKPGQSPKLLIYWASTRHTGVPVRFTGSGSGTDYTLTIISVQAEDLALYYCQQHYSTPYTFGGGTKLEIKA
notes: Mouse hybridoma antibody
B4: 4D8.b1 (antibody, mouse IgG1, kappa)
heavy: EVLLQQSGPELVKPGASVKIPCKASGYTFTDYNLDWVKQSHGKSLEWIGDINPINGATLYNQKFKGKATLTVDQSSSTAYMELRSLTSEDTAVYYCSIYYGDYDAMDYWGQGASVTVSSAKTTPPSVYPLAPGSAAQTNSMVTLGCLVKGYFPEPVTVTWNSGSLSSGVHTFPAVLQSDLYTLSSSVTVPSSTWPSETVTCNVAHPASSTKVDKKIVPRDCGCKPCICTVPEVSSVFIFPPKPKDVLTITLTPKVTCVVVDISKDDPEVQFSWFVDDVEVHTAQTQPREEQFNSTFRSVSELPIMHQDWLNGKEFKCRVNSAAFPAPIEKTISKTKGRPKAPQVYTIPPPKEQMAKDKVSLTCMITDFFPEDITVEWQWNGQPAENYKNTQPIMDTDGSYFVYSKLNVQKSNWEAGNTFTCSVLHEGLHNHHTEKSLSHSPGK
light: DIVMTQSHKFMSTSVGDRVSITCKASQDVHTAVAWYQQKPGQSPRLLIYWASTRHTGVPDRFTGCGSGTDYTLTISSVQAEDLALYYCQQHYTTPYTFGGGTKLEMKADAAPTVSIFPPSSEQLTSGGASVVCFLNNFYPKDINVKWKIDGSERQNGVLNSWTDQDSKDSTYSMSSTLTLTKDEYERHNSYTCEATHKTSTSPIVKSFNRNEC
notes: also called mouse 4d8.b1; TFPI 4D8
B5: hz4F36 (antibody, human IgG4 S228P, kappa, V domains shown)
VH: EVQLVESGGGLVKPGGSLRLSCAASGFTFSNYAMSWVRQTPEKRLEWVATISRSGSYSYFPDSVQGRFTISRDNAKNSLYLQMNSLRAEDTAVYYCARLGGYDEGDAMDSWGQGTTVTVSS
VL: DIVMTQTPLSLSVTPGQPASISCKSSQSLLESDGKTYLNWYLQKPGQSPQLLIYLVSILDSGVPDRFSGSGSGTDFTLKISRVEAEDVGVYYCLQATHFPQTFGGGTKVEIKR
notes: also called Novo2021; Anti-TFPI-4F36
B6: 4D8-Vk1.0 x VH1.0 (antibody, human IgG1, kappa, V domains shown)
VH: EVQLVESGGGLVQPGGSLRLSCAASGYTFTDYNLDWVRQAPGKGLEWVADINPINGATLYNQKFKGRFTISRDNAKNSLYLQMNSLRAEDTAVYYCARYYGDYDAMDYWGQGTLVTVSS
VL: DIQMTQSPSSLSASVGDRVTITCKASQDVHTAVAWYQQKPGKAPKLLIYWASTRHTGVPSRFSGSGSGTDFTLTISSLQPEDFATYYCQQHYTTPYTFGQGTKLEIKR
notes: Humanized 4D8 variant
B7: 4D8-Vk1.0 x VH1.3 (antibody, human IgG1, kappa, V domains shown)
VH: EVQLVESGGGLVQPGGSLRLSCAASGYTFTDYNLDWVRQAPGKGLEWVADINPINGATLYNQKFKGRATISRDNAKNSLYLQMNSLRAEDTAVYYCARYYGDYDAMDYWGQGTLVTVSS
VL: DIQMTQSPSSLSASVGDRVTITCKASQDVHTAVAWYQQKPGKAPKLLIYWASTRHTGVPSRFSGSGSGTDFTLTISSLQPEDFATYYCQQHYTTPYTFGQGTKLEIKR
notes: Humanized 4D8 variant
B8: 4D8-Vk1.1 x VH1.0 (antibody, human IgG1, kappa, V domains shown)
VH: EVQLVESGGGLVQPGGSLRLSCAASGYTFTDYNLDWVRQAPGKGLEWVADINPINGATLYNQKFKGRFTISRDNAKNSLYLQMNSLRAEDTAVYYCARYYGDYDAMDYWGQGTLVTVSS
VL: DIQMTQSPSSLSASVGDRVTITCKASQDVHTAVAWYQQKPGKAPKLLIYWASTRHTGVPSRFSGSGSGTDYTLTISSLQPEDFATYYCQQHYTTPYTFGQGTKLEIKR
notes: Humanized 4D8 variant
B9: 4D8-Vk1.0 x VH1.1 (antibody, human IgG1, kappa, V domains shown)
VH: EVQLVESGGGLVQPGGSLRLSCAASGYTFTDYNLDWVRQAPGKGLEWVGDINPINGATLYNQKFKGRATISVDQAKNSAYLQMNSLRAEDTAVYYCARYYGDYDAMDYWGQGTLVTVSS
VL: DIQMTQSPSSLSASVGDRVTITCKASQDVHTAVAWYQQKPGKAPKLLIYWASTRHTGVPSRFSGSGSGTDFTLTISSLQPEDFATYYCQQHYTTPYTFGQGTKLEIKR
notes: Humanized 4D8 variant

Columns and labels:
rabTFPI K1K2 [1] = biological target: T1, rabTFPI K1K2 (rabbit, limits assumed); assay: ELISA, TFPI on streptavidin plate
T1 construct: also called Rabbit TFPI K1K2
T1 chain: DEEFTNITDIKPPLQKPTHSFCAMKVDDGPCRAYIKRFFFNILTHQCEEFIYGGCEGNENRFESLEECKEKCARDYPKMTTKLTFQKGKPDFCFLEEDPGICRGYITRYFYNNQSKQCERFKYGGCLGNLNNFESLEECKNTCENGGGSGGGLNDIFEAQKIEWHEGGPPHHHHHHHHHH

rabTFPI K1K2 [2] = biological target: T1, rabTFPI K1K2; assay: SPR, antibody ligand, TFPI analyte
rabTFPI K1K2 [3] = biological target: T1, rabTFPI K1K2; assay: SPR (summary table)
humTFPI K1K2 = biological target: T2, humTFPI K1K2 (human); assay: SPR, antibody ligand, TFPI analyte
T2 construct: Biotinylated on the AviTag for ELISA; also called Human TFPI alpha K1K2; humTFPI K1K2-aviHis10

rabTFPI K1K2 [4] = biological target: T1, rabTFPI K1K2; assay: SPR, antibody ligand, TFPI analyte
rabTFPI K1K2 [5] = biological target: T1, rabTFPI K1K2; assay: ELISA, TFPI on streptavidin plate

| Binder | EC50 (rabTFPI K1K2 [1]) [nM] | Kd (rabTFPI K1K2 [2]) [nM] | koff (rabTFPI K1K2 [2]) [s⁻¹] | kon (rabTFPI K1K2 [2]) [M⁻¹ s⁻¹] | EC50 (rabTFPI K1K2 [5]) [nM] | further results |
| --- | --- | --- | --- | --- | --- | --- |
| B1 | 0.0887 | 3.55 | 0.0188 | 5.3e+06 | – | – |
| B2 | – | – | – | – | – | Kd (rabTFPI K1K2 [3]): 0.145 nM; koff (humTFPI K1K2): 0.00381 s⁻¹; Kd (rabTFPI K1K2 [4]): 0.145 nM; koff (rabTFPI K1K2 [4]): 0.000277 s⁻¹; kon (rabTFPI K1K2 [4]): 1.92e+06 M⁻¹ s⁻¹ |
| B3 | 0.129 | 4.95 | 0.00564 | 1.14e+06 | – | – |
| B4 | 0.0976 | 0.63 | 0.00126 | 2.01e+06 | – | – |
| B5 | – | – | – | – | – | Kd (rabTFPI K1K2 [3]): 1.81 nM; Kd (rabTFPI K1K2 [4]): 1.81 nM; koff (rabTFPI K1K2 [4]): 0.0076 s⁻¹; kon (rabTFPI K1K2 [4]): 4.2e+06 M⁻¹ s⁻¹ |
| B6 | – | – | – | – | 0.0785 | – |
| B7 | – | – | – | – | 0.0556 | – |
| B8 | – | – | – | – | 0.0451 | – |
| B9 | – | – | – | – | 0.0705 | – |
